{"source": "the nanobody polyreactivity screen of Harvey et al. (2022)"}
{"assay": "yeast display, Sf9 membrane polyspecificity reagent, FACS + sequencing; frameworks hold sequencing errors", "summary_of_the_method": "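Nanobodies came from a synthetic yeast display library in Saccharomyces cerevisiae BJ5465, induced with galactose for 36–48 hours and stained for 1 hour at 4 °C with 10% biotinylated, detergent-solubilized Sf9 membrane reagent. Cells were enriched on streptavidin microbeads and then FACS-sorted, with low and high (top ~1%) gates set on anti-HA fluorescence for expression and streptavidin fluorescence for reagent binding. Each polyreactivity label reflects the gate a clone came from. Genes were amplified by colony PCR, sequenced by MiSeq 2 × 250 and filtered by CDR length.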"}
{"sequence": "QVQLGESGGCLVQAGGSLRLICAASGFIFDRYVMGWYRQAPGKESELVAAINRSGGSTYYADSVKGRFTISRDNAKNTVYLQMNSLKRVDTAVYYCADVRPGSFTVEGYYCGQGTQVTVSS", "polyreactivity (PSR sort gate)": "high polyreactivity"}
{"sequence": "QVQLGESGGGLLQAGGSLRLICAASGSIFSPYDMGWYRHAPGKERVLVAAITGSGASTYYADSVKGRFSISRDNAKNTVSLEMNSLKPEETAVYYCAAVSKYYTTWTSGYWGQGTQVTLSS", "polyreactivity (PSR sort gate)": "low polyreactivity"}
{"sequence": "QVQLGESGGGLVQAGGILRLSCAASGSTFFYYAMGWYRQAPGKERELVATINYNGGSTSYADSVKGRFTFSRDNAKNTLYLQMISLIPEDTAVYYCAADLWVWYYKPYDYWGQGTQVTVSS", "polyreactivity (PSR sort gate)": "low polyreactivity"}
{"sequence": "QVQLGESGGGLVQAGGSLLLSSAASGFIFHNYPMGWYRQAPVKERELVAAISWSGSRTYYADSVKGRFTISRDNAKNSVYLQMNSLKPEDTAVYYCNKAPSWWDVRVPFDYWGQGTQVTVSS", "polyreactivity (PSR sort gate)": "low polyreactivity"}
{"sequence": "QVQLGESGGGLVQAGGSLRLICAASGFTFYDYAMGWYRQEPGKETEFVAAITRSGSSTYYADSVKGRFTISRDNAKNTVYLQMNSLKPEDTAVYYCAVGPFRRRGHYPTYYRYGYWGQGTQVTVSS", "polyreactivity (PSR sort gate)": "high polyreactivity"}
{"sequence": "QVQLGESGGGLVQAGGSLRLSCAASGFIFRYYGMGWYRQAPGKERELVAAISRGGGSTYYADSVKGRFTISRDNAKNTVYLQMNSLKPEDTAVYYCATRRDPDYDYWGQGTQVTVSS", "polyreactivity (PSR sort gate)": "high polyreactivity"}
{"sequence": "QVQLGESGGGLVQAGGSLRLSCAASGFTFVHNAMGWYRQAPGKERELVAAISSSGGRTYYADSVKGRFTISRDNAKNTVYLQMNSLKPDDTAVYYCATVNRYGPSYGYWGQGTHVTVSS", "polyreactivity (PSR sort gate)": "high polyreactivity"}
{"sequence": "QVQLGESGGGLVQAGGSLRLSCAASGFTFYTYAMGLYRQAPGKERELVATISSGGRTNYADSVKGRFTISRDNAKNTVYLQMNSLKPEDPAVFYCNASPPTLEGYWGQGTQVTVSS", "polyreactivity (PSR sort gate)": "low polyreactivity"}
{"sequence": "QVQLGESGGGLVQAGGSLRLSCAASGIIYKYAMGWYRQAPGQERELVATITWSDCSTYYADSVKGRFTISRDNAKNTVSLQMNSLKPEDTAVYYCAADDYYGYDYWGQGTQVTVSS", "polyreactivity (PSR sort gate)": "low polyreactivity"}
{"sequence": "QVQLGESGGGLVQAGGSLRLSCAASGITFGRKTMGWYRQAPGKERELVAAIDSGGNTYADSVKGRFTISRDNAKNTVYLQMNSLKPEDTAVYYCAVDGGEFSSYGYWGQGTQVTVSS", "polyreactivity (PSR sort gate)": "low polyreactivity"}
{"sequence": "QVQLGESGGGLVQAGGSLRLSCAASGITFWSYAMGLYRQAPGKERELVATIRWSGGGTYYADSVKGRFTISRDNAKNTVYLQMNSLKPEDTAVYYCNADDYGHPPYDYWGQGTQVTVSS", "polyreactivity (PSR sort gate)": "high polyreactivity"}
{"sequence": "QVQLGESGGGLVQAGGSLRLSCAASGRIFLRNVMGWYRPAPGKERELVAAISLSGASTYYADSVKGRFTISRDNAKNTVYLQMNSLKPEDTAVYYCAADITILSDYWGQGTQVTVSS", "polyreactivity (PSR sort gate)": "low polyreactivity"}
{"sequence": "QVQLGESGGGLVQAGGSLRLSCAASGRIFTSYPMGWYRQAPGKERELVAAISRSGGSTYYADSVKGRFTISRDNAKNTVYLQMNSLKPEDTAVYYCAKARVVAGYDYWGQGTQVTVSS", "polyreactivity (PSR sort gate)": "high polyreactivity"}
{"sequence": "QVQLGESGGGLVQAGGSLRLSCAASGRIFVKYAMGWYRQAPGKERELVAAISKSGGSTYYADSVKGRFTISRDNAKKTVYLQMNSLKPEDTAVYYCATRSREQYSVSYRLDFWGQGTQVTVSS", "polyreactivity (PSR sort gate)": "low polyreactivity"}
{"sequence": "QVQLGESGGGLVQAGGSLRLSCAASGRTFYSYAMGWYRHAPWKERELVAAISASGGRTYYADSVKGRFTISRDNEKNTVYLQMNSLKPEDTAVYYCAAYPWYRMWGQGTQVTVSS", "polyreactivity (PSR sort gate)": "high polyreactivity"}
{"sequence": "QVQLGESGGGLVQAGGSLRLSCAASGRTFYVYAMGWYRQAPGKERELVASIRRSGGITYYADYVKGRFTISRDNAKNTVYLLMNSLKPEDSAVYYCNARRGPGRREYDYWGQGTQVTVSS", "polyreactivity (PSR sort gate)": "high polyreactivity"}
{"sequence": "QVQLGESGGGLVQAGGSLRLSCAASGRTLSYYARGWYRHAPGKEREFVAAITGSGGSTYYADSVKGRFTISRDNAKNTVYLQMHSLQPADTAVYYCNAKGLGVFTVEYYYWGQGTQVTVSS", "polyreactivity (PSR sort gate)": "low polyreactivity"}
{"sequence": "QVQLGESGGGLVQAGGSLRLSCAASGSIFAFNTMGWYRQAPGKERELVAAITWGGGSTYYADSVKGRFTISRDNAKNTVYLQMNSLKPEDTAVYYCAARRSGRTRYYWGQGTQVTVSS", "polyreactivity (PSR sort gate)": "high polyreactivity"}
{"sequence": "QVQLGESGGGLVQAGGSLRLSCAASGSIFGHYAMGWYRQAPGKERELVAAISWSGTSTYYADSVKGRFTISRDNAKNTVYFQMNTLKPEDTAVYYCNVVYRVVSPSGGGYWGQGTQVTVSS", "polyreactivity (PSR sort gate)": "high polyreactivity"}
{"sequence": "QVQLGESGGGLVQAGGSLRLSCAASGSIFRGYTMGWYRQAPGKERELVAGISFSGTRTYYADSVKGRFTISRDNAKNTVYLQMNSLKPEDTAVYYCAAVSPYGSQYGYWGQGTQVTVSS", "polyreactivity (PSR sort gate)": "high polyreactivity"}
{"sequence": "QVQLGESGGGLVQAGGSLRLSCAASGSIFRYYVMGWYRQAPGKERELVATISRDSSRNYADSVKGRFTISRDNAKNTVYLQMNSLKPEDTAVYYCNTEGGVIRSYWYDYWGQGTQVTVSS", "polyreactivity (PSR sort gate)": "low polyreactivity"}
{"sequence": "QVQLGESGGGLVQAGGSLRLSCAASGSILRSYAMGWYRQAPGKERELVAVINGSGDRTYYADSVKGRFTISRDTAKNTVYLQMNSLKPEDTAVYYCNVVRRSPGDYSYYYWGKGTQVTVSS", "polyreactivity (PSR sort gate)": "low polyreactivity"}
{"sequence": "QVQLGESGGGLVQAGGSLRLSCAASGSIYVNAMGWYRQAPRKERELVAVISKSGGSTYYADSVKGRFTISRDNAKNTVYLQMNSLKPEETAVYYCAASRPSPGPRYGYWGQGTQVTVSS", "polyreactivity (PSR sort gate)": "high polyreactivity"}
{"sequence": "QVQLGESGGGLVQAGGSLRLSCAASGSTFESYAMGWYRPAPGKEWELVAAINGGGRTYYADSVKGRFTISRDTAKNTVYLQMNSLNPEDTAVYYCAAEYRRGYYWPWGWEYYWGQGTQVTVSS", "polyreactivity (PSR sort gate)": "low polyreactivity"}
{"sequence": "QVQLGESGGGLVQAGGSLRLSCAASGSTFHPHAMGWYRQAPGKERELVATIRRTGDSTYDADSVKGRFTISRDHAKNTVNLQMNSLKPEDTAVYYCAARYYAESYRYYYWGQGTQGTVSS", "polyreactivity (PSR sort gate)": "high polyreactivity"}
{"sequence": "QVQLGESGGGLVQAGGSLRLSCAASGSTFNRYAMGWYIQAPGKERELVAAITVRGNTYYADSVKGRFTISRDNAKNTVDVQMNSVKPEDTAVYYCNAVSASPSYVYRPYFKRGYWGQGTQGTVSS", "polyreactivity (PSR sort gate)": "high polyreactivity"}
{"sequence": "QVQLGESGGGLVQAGGSLRLSCAASGSTFNRYAMGWYRQAPGKERELVAAISFSGGRTYYADSVKGRFTISRDNAKNTVYLQMNSLKPEDSAVYYCTKVVYGYFTRAYTYNYWGQGTQVTVSS", "polyreactivity (PSR sort gate)": "high polyreactivity"}
{"sequence": "QVQLGESGGGLVQAGGSLRLSCAASGSTFPFNAMGWYRQAPGKERELVAAITLRGGRTYYADSVKGRFTISRDNAKNTVYLQMNSMKPEDTAVYYCAARHNPYRYYHWGQGTQVTVSS", "polyreactivity (PSR sort gate)": "high polyreactivity"}
{"sequence": "QVQLGESGGGLVQAGGSLRLSCAGTGIIFARYVMGWEREAPGQDRELVAAIRRSGHSTYADSVKGRFTISRYNATNTLYLHMNSLKPEETAVYYCNAKGWISGRYSPYYRFDYWGQGTQVTVSS", "polyreactivity (PSR sort gate)": "high polyreactivity"}
{"sequence": "QVQLGESGGGLVQAGGSLRLSCAPSGSIFGYYSMGWYRQAPGKERELVATITLSDDSTYYAVSVKGRFTISRDNAKITVYLQMNSLKPEDTAVYYCAAVRITRYQWDRSVGSGDYWGQGTQVTVSS", "polyreactivity (PSR sort gate)": "high polyreactivity"}
{"sequence": "QVQLGESGGGLVQAGGSLRLSFAASGRISKRNDRGWSRQAPGKERELVAGITSTGSTSYAHSVKGRFTISRDNAKKTVYLQMNSLKPEDTAVYYCAARGQATYNWGQGTQVTVSS", "polyreactivity (PSR sort gate)": "high polyreactivity"}
{"sequence": "QVQLGESGGGLVQAGGSVRLSCAASGRTFDFYALGWYRQAPGKERELVAAISSRGGSTYYADSVKGRFTISRDNAKNTVYLQMNSLKPEDTAVYYGAKDLGYRGRYNYWGQGTQVTVSS", "polyreactivity (PSR sort gate)": "low polyreactivity"}
{"sequence": "QVQLGESVGGLVQAGGSLRLSCAASGFTSRKNAMGWYRQAPGKERELVAAITQSSGRTYYADSVKGRFTISRVNAKNTVYLQMNRLKPEDTAVYYCAARRGGEDDYWGQGTQVTVSS", "polyreactivity (PSR sort gate)": "low polyreactivity"}
{"sequence": "QVQLHESGGGLVLAGGSLRLSCSASGNISVYGSMGLYRQAPGKEREFVATIDPGTNTNYADSVKDRFSISRDNAKHTVYLQMNSLKPEDTAVYYCAVEAGSDWPYRYWGHGTQVTVSS", "polyreactivity (PSR sort gate)": "low polyreactivity"}
{"sequence": "QVQLHESGGGLVQAGGSLRLGCAPSGNISHAAYMGWYRQAPGKEREFVAAIAAGSNPNYADSVKGRFTISRDNAKNTVYLQMNSLKPEDTAVFYCAVASYARVQYEYWGQGTQVTVNS", "polyreactivity (PSR sort gate)": "low polyreactivity"}
{"sequence": "QVQLHESGGGLVQAGGSLRLSCAASGTISVTYNMAWYRQAPGKERECVAGNSTGATTNYADSVKGRFTIRRDNAKNTVYLQMNSLKPEDTAVYYCAAHIYRQDHFYYWGQGTQVTVSS", "polyreactivity (PSR sort gate)": "low polyreactivity"}
{"sequence": "QVQLHESGGGLVQAGGSLRLSCAASGTISYAGPRGWYRQAPGKERECVAGIGVGSNTNYADSVKGRYTIIRDNAKNTVYLQMNILKPEVTAVYYCAVGGYAPLGRPYWGQGTQVTVSS", "polyreactivity (PSR sort gate)": "low polyreactivity"}
{"sequence": "QVQLHESGGGLVQEGGSQRLSCAASGNIFYTYAMRWYRHAPGKEREFDATINHGTSINYADSVKGRFTISRDNAKNTVYLQMNSLKPEDTAVYYCAADLSWTDNLFYWGQGTQVTVSS", "polyreactivity (PSR sort gate)": "low polyreactivity"}
{"sequence": "QVQLHQSGGGLVQAGGTLRLSCAPSGNISVTYNMGWYRQAPGKEREFVAGNSTGATTNYADSVTGRFTISRDNAKNSVYLQMNSLKPEDTAVYYCAAHIYRQDHFYYWGQGTQVTVSS", "polyreactivity (PSR sort gate)": "low polyreactivity"}
{"sequence": "QVQLIESGGGLVQAGGSLRLSCAASGRTFYVNAMGWYRQAPGKERELVAAIRSGGSTSYADSVKGRFTISRDNAKNTVYLQMNSLKPEDTAVYYCAAKSGLDLYYGLGGYWGQGTQVTVSS", "polyreactivity (PSR sort gate)": "high polyreactivity"}
{"sequence": "QVQLIESGGGLVQAGGSLRLSCAASGSIFAANAMGWYRQAPGKEREFVASISYTGASTYADSVKGRFTISRDNAKNTVYLQMKSLKPEDTAVYYCAKDGYWTGLDPYYYWGQGTQVTVSS", "polyreactivity (PSR sort gate)": "low polyreactivity"}
